Columns and labels:
[1] = biological target: T1, SCC1-myc (in vitro translated human SCC1 with myc tag) (UniProt O60216)
T1 sequence: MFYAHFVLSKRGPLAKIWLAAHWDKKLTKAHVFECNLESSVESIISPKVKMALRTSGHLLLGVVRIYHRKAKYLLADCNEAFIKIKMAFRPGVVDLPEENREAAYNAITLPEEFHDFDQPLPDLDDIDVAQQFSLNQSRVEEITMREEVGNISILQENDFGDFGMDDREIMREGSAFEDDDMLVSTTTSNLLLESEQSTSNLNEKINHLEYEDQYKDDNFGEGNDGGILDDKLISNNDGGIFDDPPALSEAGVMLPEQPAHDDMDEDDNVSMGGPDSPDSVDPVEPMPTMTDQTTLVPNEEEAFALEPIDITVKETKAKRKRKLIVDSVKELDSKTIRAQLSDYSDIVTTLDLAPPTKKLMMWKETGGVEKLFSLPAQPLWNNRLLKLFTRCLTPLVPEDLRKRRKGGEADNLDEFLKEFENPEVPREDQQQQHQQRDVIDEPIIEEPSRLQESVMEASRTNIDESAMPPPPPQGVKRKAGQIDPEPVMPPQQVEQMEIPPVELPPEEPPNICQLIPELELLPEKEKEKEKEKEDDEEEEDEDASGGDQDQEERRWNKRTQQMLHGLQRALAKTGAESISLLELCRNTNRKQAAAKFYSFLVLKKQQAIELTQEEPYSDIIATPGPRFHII

[2] = biological target: T2, recombinant human securin, wildtype, expressed in E. coli (UniProt O95997)
T2 sequence: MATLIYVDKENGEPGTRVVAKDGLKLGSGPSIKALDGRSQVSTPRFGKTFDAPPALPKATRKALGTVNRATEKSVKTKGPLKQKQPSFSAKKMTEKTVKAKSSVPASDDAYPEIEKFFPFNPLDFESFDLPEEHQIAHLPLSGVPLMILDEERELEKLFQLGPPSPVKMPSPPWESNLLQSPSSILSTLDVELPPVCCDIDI

[3] = test system: separase-myc (in vitro translated separase construct with one myc epitope at its C-terminus)
Bio-SVEQGR-cmk = test system: T3, Bio-SVEQGR-cmk
T3 sequence: SVEQGR

[4] = biological target: T4, destruction box deleted form of securin (UniProt O95997)
T4 sequence: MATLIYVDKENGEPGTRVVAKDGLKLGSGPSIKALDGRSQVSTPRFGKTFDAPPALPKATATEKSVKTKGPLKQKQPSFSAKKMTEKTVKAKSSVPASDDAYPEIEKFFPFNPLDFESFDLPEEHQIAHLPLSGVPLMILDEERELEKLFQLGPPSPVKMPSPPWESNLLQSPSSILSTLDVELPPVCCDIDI

Bio-SVEQGR-amk = test system: T5, Bio-SVEQGR-amk
T5 sequence: SVEQGR

Substance | cleavage of SCC1-myc (anti-myc immunoblot, FIG. 6B) [1] | cleavage of SCC1-myc by separase (anti-myc immunoblot) [2] | cleavage of in vitro translated separase-myc (anti-myc immunoblot, FIG. 5) [3] | cleavage of SCC1-myc (anti-myc immunoblot) [1] | cleavage of SCC1-myc by separase (anti-myc immunoblot) (Bio-SVEQGR-cmk) | cleavage of SCC1-myc by separase (anti-myc immunoblot) [4] | cleavage of SCC1-myc by separase (anti-myc immunoblot) (Bio-SVEQGR-amk) | cleavage of SCC1-myc by separase (anti-myc immunoblot, FIG. 4C lane 2i) (Bio-SVEQGR-amk) | cleavage of SCC1-myc by separase (anti-myc immunoblot, FIG. 4C lane 3i) (Bio-SVEQGR-amk)
N-terminally FLAG-tagged full length human separase expressed in HeLa cells, anti-FLAG immunoprecipitate activated in mitotic Xenopus egg extract | ectopically expressed separase is able to cleave human SCC1 |  |  |  |  |  |  |  | 
cleaved form of human separase (separase immunoprecipitate from nocodazole-arrested HeLa cells, activated in mitotic Xenopus egg extract) |  | no cleavage of SCC1 was detected | in vitro translated separase was cleaved when it was incubated with active separase obtained by incubation of separase immunoprecipitates in mitotic Xenopus egg extracts | it is the cleaved form of separase that is the active protease which cleaves SCC1, unless it is inhibited by the rebinding of securin | both inhibitors are able to block the ability of separase to cleave SCC1 | Identical results were obtained with two different forms of securin, the wildtype protein (WT-securin) and a form that can not be destroyed by ubiquitin-dependent proteolysis (DB-securin | both inhibitors are able to block the ability of separase to cleave SCC1 | separase was unable to cleave SCC1 | This treatment inhibited SCC1 cleavage by separase

From US20020164620
